For assay [1], the target named is SARS-CoV-2 spike protein (full length, wild type) (SARS-CoV-2, UniProt P0DTC2 14-1273). Description: cell-based or functional assay.
In assay [2] the target is SARS-CoV-2 spike receptor binding domain (RBD) (SARS-CoV-2, UniProt P0DTC2 319-541). Description: RBD/ACE2 competition; RBD binding to ACE2 on HEK-293 cells.
Assay [3] has as its target T1, SARS-CoV-2 spike protein (full length, wild type) (SARS-CoV-2, UniProt P0DTC2 14-1273). Description: cell-based or functional assay. This is another data set of the same source.
For assay [4], the target named is T2, SARS-CoV-2 spike receptor binding domain (RBD) (SARS-CoV-2, UniProt P0DTC2 319-541).
T2 construct: also called SARS-CoV RBD
Description: RBD/ACE2 competition; RBD binding to ACE2 on HEK-293 cells.

In assay [5] the target is T2, SARS-CoV-2 spike receptor binding …. The assay is described as above. This is another data set of the same source.
Assay [6] concerns the target T1, SARS-CoV-2 spike protein (full length, …). Description: cell-based or functional assay. This is another data set of the same source.

The values below come from patent US20230391856A1 (ICAHN SCHOOL OF MEDICINE AT MOUNT SINAI, published 2023).

Where a chain is given by its changes, count along the chain named.

B1: 8A1 (antibody, V domains shown)
VH: EVQLQESGGGLVQPGGSLKLSCAASGFTFSSYTMSWVRQTPEKRLEWVAYISNGGGSISYPDTVKGRFTISRDNAKNTLYLHMSSLKSEDTAMYHCAREGLRPGDRDRYYAMDYWGQGTSVTVSS
VL: DIVITQSPALMAAFPGDRVTITCSVSSSVSSSNLHWYRQKSETSPKPWIYGTSTLASGVPVRFSGSGSGTSYSLTISSMEAEDAATYYCQQWSSYPLTFGAGTKLELKR
On to B1, for which the “EC50 (pM)” value in assay [1] was 96 pM. Besides, the “ACE2 Inhibition (%)” value in assay [2] amounted to 95%.

B2: SARS2-1G9_f3 (antibody, V domains shown)
VH: QVQLVQSGAEVKKPGASVKVSCKASGYTFTSYDIIWVRQATGQGLEWMGWMSPNSGNTGYAQKFQGRVTMTRNTSISTAYMELSSLRSEDTAVYYCARFGYGSGALDYYYYGLDVWGQGTTVTVSS
VL: not shown
notes: also called antibody number 5
Consider B2, for which the “EC50 (pM)” value in assay [3] was 145 pM. Also, in assay [4], the “ACE2 Inhibition (%)” value came to 96%. Besides, the “ACE2 binding [% inhibition]” value in assay [5] is 96%.

B3: SARS2-16C12_f3 (antibody, V domains shown)
VH: B2 VH
VL: not shown
notes: also called antibody number 16; family B
Regarding B3, the “EC50 (pM)” value in assay [3] amounted to 59 pM. The “ACE2 Inhibition (%)” value in assay [4] stood at 87%. Also, the “ACE2 binding [% inhibition]” value in assay [5] is 87%.

B4: SARS2-8H4_f3 (antibody, V domains shown)
VH: B2 VH with I35T
VL: EIVLTQSPGTLSLSPGERATLSCRASQSVRSSHLAWYQQKPGQAPRLLIYGASSRATGIPDRFSGSGSGTDFTLTISRLEPEDFAVYYCQQFGSSPITFGQGTRLEIK
notes: also called antibody number 9
Consider B4, for which, in assay [3], the “EC50 (pM)” value worked out at 100 pM. The “ACE2 Inhibition (%)” value in assay [4] came to 93%. Moreover, the “ACE2 binding [% inhibition]” value in assay [5] is 93%.

B5: SARS2-17F2_f3 (antibody, V domains shown)
VH: B2 VH with K13R, I35T, N54D, K63R
VL: B4 VL with F92Y, G93N
notes: also called antibody number 18
Take B5: the “EC50 (pM)” value in assay [3] came out at 151 pM. For the same molecule, in assay [4], the “ACE2 Inhibition (%)” value was 65%. Besides, the “ACE2 binding [% inhibition]” value in assay [5] turned out to be 65%.

B6: SARS2-1E2_f3 (antibody, V domains shown)
VH: B2 VH with I35T
VL: B4 VL with L34F, Y87C, F92Y
notes: also called antibody number 4
Take B6: the “EC50 (pM)” value in assay [3] was found to be 218 pM. Further, in assay [4], the “ACE2 Inhibition (%)” value was 86%. Besides, the “ACE2 binding [% inhibition]” value in assay [5] was 86%.

B7: SARS2-5D7_f3 (antibody, V domains shown)
VH: B2 VH with A16T, A24T, N54K, S55N, K63R
VL: B4 VL with Q38R, S66R, F92Y, G93N, S94I
notes: also called antibody number 6
Regarding B7, the “EC50 (pM)” value in assay [3] is 284 pM. The “ACE2 Inhibition (%)” value in assay [4] amounted to 97%. The “ACE2 binding [% inhibition]” value in assay [5] turned out to be 97%.

B8: 11G2_f3 (antibody, V domains shown)
VH: B2 VH with I35T, T69S
VL: B4 VL with S31N
notes: also called SARS2-11G2_S; antibody number 13
As for B8, the “EC50 (pM)” value in assay [3] came out at 74 pM. In assay [6], the “Inhibition: EC50 [pM]” value was 109 pM. Also, the “ACE2 Inhibition (%)” value in assay [4] stood at 90%. Also, in assay [5], the “ACE2 binding [% inhibition]” value amounted to 90%.

B9: SARS2-1D5_f3 (antibody, V domains shown)
VH: B2 VH with I35T, S84N
VL: B4 VL with E17D, T73S
notes: also called antibody number 2
As for B9, in assay [3], the “EC50 (pM)” value was determined as 49 pM. The “Inhibition: EC50 [pM]” value in assay [6] came to 94 pM. In assay [4], the “ACE2 Inhibition (%)” value worked out at 94%. The “ACE2 binding [% inhibition]” value in assay [5] was 94%.

B10: SARS2-5H12_f3 (antibody, V domains shown)
VH: B2 VH with A16T, A24T, T30P, N54K, S55N, Y60F, K63R, D107G
VL: B4 VL with Q38R, S66R, F92Y, G93N, S94F
notes: also called antibody number 7
As to B10, in assay [3], the “EC50 (pM)” value is 377 pM. In addition, the “ACE2 Inhibition (%)” value in assay [4] came out at 100%. The “ACE2 binding [% inhibition]” value in assay [5] was 100%.

B11: SARS2-18E7_f3 (antibody, V domains shown)
VH: B2 VH with K19T, K63R
VL: not shown
notes: also called antibody number 19
Turning to B11, the “EC50 (pM)” value in assay [3] came to 62 pM. Further, in assay [4], the “ACE2 Inhibition (%)” value was determined as 82%. The “ACE2 binding [% inhibition]” value in assay [5] amounted to 82%.

B12: SARS2-1D10_f3 (antibody, V domains shown)
VH: B2 VH with T41S, S77N
VL: not shown
notes: also called antibody number 3
For B12, in assay [3], the “EC50 (pM)” value was determined as 47 pM. Moreover, the “ACE2 Inhibition (%)” value in assay [4] amounted to 95%. Moreover, in assay [5], the “ACE2 binding [% inhibition]” value came to 95%.

B13: SARS2-9C6_f3 (antibody, V domains shown)
VH: B2 VH with I35T, N54K
VL: B4 VL with Q38R, S66R, F92Y, G93N
notes: also called antibody number 10
B13: the “EC50 (pM)” value in assay [3] is 105 pM. Moreover, in assay [4], the “ACE2 Inhibition (%)” value is 85%. The “ACE2 binding [% inhibition]” value in assay [5] amounted to 85%.

B14: SARS2-7C10_f3 (antibody, V domains shown)
VH: B2 VH with I35T, S84R
VL: B4 VL with Y37S
notes: also called antibody number 8
Take B14: the “EC50 (pM)” value in assay [3] stood at 152 pM. In addition, in assay [4], the “ACE2 Inhibition (%)” value came to 85%. In addition, in assay [5], the “ACE2 binding [% inhibition]” value was determined as 85%.

B15: SARS2-16C5_f3 (antibody, V domains shown)
VH: B2 VH with S77G, Y95F
VL: B4 VL with F92Y, G93N, S94N
notes: also called antibody number 15; family B
Consider B15, for which the “EC50 (pM)” value in assay [3] is 107 pM. The “ACE2 Inhibition (%)” value in assay [4] amounted to 94%. In addition, the “ACE2 binding [% inhibition]” value in assay [5] was 94%.

B16: SARS2-17A8_f3 (antibody, V domains shown)
VH: B2 VH with R72K
VL: not shown
notes: also called antibody number 17
On to B16, for which the “EC50 (pM)” value in assay [3] was determined as 59 pM. The “ACE2 Inhibition (%)” value in assay [4] is 98%. Besides, the “ACE2 binding [% inhibition]” value in assay [5] was determined as 98%.

B17: SARS2-1C12_f3 (antibody, V domains shown)
VH: B2 VH with I35T, A61T
VL: B4 VL with F92Y, G93N, S94N
notes: also called antibody number 1
Take B17: in assay [3], the “EC50 (pM)” value was determined as 75 pM. In assay [4], the “ACE2 Inhibition (%)” value is 88%. Moreover, in assay [5], the “ACE2 binding [% inhibition]” value came out at 88%.

B18: SARS2-10D6_f3 (antibody, V domains shown)
VH: EVQLVETGGGLIQPGGSLRLSCAASGITVSSNYMNWVRQAPGKGLEWVSVIYSGGSTYYADSVKGRFTISRDNSKNTLYLQMNSLRAEDTAVYYCARDLELAGAFDIWGQGTMVTVSL
VL: DIQLTQSPSFLSASVGDRVTITCRASQGISSYLAWYQQKPGKAPKVLIYAASTLQSGVPSRFSGSGSGTEFTLTISSLQPEDFATYYCQQLNSYPPSTFGQGTKLEIK
notes: also called antibody number 11; family A
For B18, in assay [3], the “EC50 (pM)” value was determined as 1020 pM. For the same molecule, the “ACE2 Inhibition (%)” value in assay [4] is 81%. The “ACE2 binding [% inhibition]” value in assay [5] stood at 81%.

B19: SARS2-19C4_f3 (antibody, V domains shown)
VH: B18 VH with Y58F, L101V, A104G
VL: B18 VL with E70K, Y94F
notes: also called antibody number 20; family A
Regarding B19, the “EC50 (pM)” value in assay [3] came to 492 pM. Further, the “ACE2 Inhibition (%)” value in assay [4] amounted to 89%. Besides, the “ACE2 binding [% inhibition]” value in assay [5] was found to be 89%.

B20: SARS2-11D5_f3 (antibody, V domains shown)
VH: B18 VH with N35S, E100A, L101V
VL: B18 VL
notes: also called antibody number 12
On to B20, for which the “EC50 (pM)” value in assay [3] is 440 pM. Also, the “ACE2 Inhibition (%)” value in assay [4] was 66%. Besides, in assay [5], the “ACE2 binding [% inhibition]” value came out at 66%.
